PMC3681696 (Molecular Biology of the Cell, 2013)

Target: purified muscle actin filaments (UniProt P68135 1-377)

Kd: ~20 µM
B1: recombinant Rng2p calponin homology domain (domain or fragment)
chain: MDVNVGLSRLQSQAGAPVGTKGSNTRLAAKQRETLQAYDYLCRVDEAKKWIEECLGTDLGPTSTFEQSLRNGVVLALLVQKFQPDKLIKIFYSNELQFRHSDNINKFLDFIHGIGLPEIFHFELTDIYEGKNLPKVIYCIHALSYFLSMQDLAPPLIKSDENLSFTDEDVSIIVRRLRQSNVILPNFKAL
